These results are taken from patent publication US20230203162A1 (NUMAB THERAPEUTICS, published 2023).

A word on the EC50: it is the concentration that produces a half-maximal response. A higher EC50 goes with a less potent agent. For orientation: Kd means the concentration at which binding is half-saturated. In general, koff refers to the rate constant with which the complex falls apart. In general, kon refers to the second-order rate constant of association. One may read the IC50 as the concentration that gives 50% inhibition. Low readings indicate greater potency, high ones weaker potency.

Assay [1] concerns the target T1, plasma-membranous human MSLN on cell lines (H226, HPAC, H292, OVCAR-3, MeT-5A) (human, UniProt Q13421 296-598).
T1 construct: whole, on cells; also called human MSLN on H226 cells; mesothelin on target cells
Kind of assay: cELISA on H226 cells, HRP-Protein L.

Assay [2] has as its target T2, recombinant human MSLN (purchased from Peprotech) (human, UniProt Q13421 296-598, limits assumed).
T2 construct: Bought protein; also called recombinant human mesothelin
The assay is described as follows: SPR, MSLN immobilized on CM5, scFv as analyte, 1:1 Langmuir. A general note: SPR reads the build-up and loss of mass on a sensor chip optically.

The target in assay [3] is biotinylated MSLN (human MSLN in the MSLN/MUC16 competition ELISA) (human, UniProt Q13421 296-598, limits assumed, biotinylated). The assay is described as follows: competition ELISA, scFv titrated with biotinylated MSLN; competitor coated MUC16. On the technique in general: In an ELISA, binding on a coated surface is turned into a signal by an enzyme label.
For assay [4], the target named is T3, human recombinant CD3ε protein (Sino Biological) (human, UniProt P07766 23-126).
T3 construct: Bought protein; also called recombinant human CD3ε; human CD3ε
The assay is described as follows: SPR, CD3ε amine-coupled to CM5, antibody injected.

Assay [5] has as its target T1, plasma-membranous human MSLN on cell …. Kind of assay: flow cytometry on H226 cells, protein L-PE, 4PL fit.
For assay [6] the target is unchanged. Kind of assay: flow cytometry on Met-5A cells, protein L-PE, 4PL fit. (In general: In flow cytometry, cells or beads pass a laser one at a time.)
Assay [7] shares this target. Kind of assay: flow cytometry on OVCAR-3 cells, protein L-PE, 4PL fit.
Assay [8] has as its target human serum albumin (hSA, Sigma-Aldrich A3782) (human, UniProt P02768 25-609). Kind of assay: SPR, hSA amine-coupled to CM5, antibody injected, pH 5.5, 1:1 Langmuir.
Assay [9] concerns the target T2, recombinant human MSLN (purchased from …). The assay is described as follows: SPR (Biacore T200), human MSLN; which of the two formats (MSLN immobilized / antibody captured) not given.

B1: anti-MSLN scFv PRO1922 (scFv)
scFv: DIQMTQSPSSLSASVGDRVTITCQASESIYSSLAWYQQKPGKAPKLLIYLASTLASGVPSRFSGSGSGTDFTLTISSLQPEDFATYYCQSTDYTTSTHRNSFGTGTKVTVLGGGGGSGGGGSGGGGSGGGGSEVQLVESGGGLVQPGGSLRLSCAASGFSFSTTYYMCWVRQAPGKGLEWIGCTNTASSVRTYYATWAKGRFTISRDNSKNTVYLQMNSLRAEDTAVYYCARDMGFADYALNLWGQGTLVTVSS
notes: also called 54-21-H03-sc01
As for B1, in [1], the EC50 came out at 290 pM; the “rel. EC50 (EC50, Amatuximab/EC50, scFv)” value amounted to 0.52 ratio; the “rel. Maximum binding (OD450-690 nm, scFv/OD450-690 nm, Amatuximab)” value (from here on “rel. Maximum binding”) was determined as 0.61 ratio. Besides, in assay [2], the equilibrium dissociation constant (Kd) was determined as 177 pM, the dissociation rate constant (koff) is 0.00013 s⁻¹ and the on-rate (kon) was found to be 735000 M⁻¹ s⁻¹. Further, in [3], the IC50 turned out to be 50 pM; the “Maximum inhibition at highest sample conc.” value came out at 99.3%; the “rel. IC50 (IC50, Amatuximab/IC50, scFv)” value is 0.29 ratio.

B2: PRO2562 (MATCH4) (other)
chain 1: ALQMTQSPSSLSARVGDRVTIKCQASQSISNYLAWYQQKPGKPPKFLIYDASDLASGVPSRFSGSGSGRDFTLTISSLQPEDFATYYCQQVYDSNNVENVFGCGTKVTVLGGGGGSGGGGSGGGGSGGGGSQSQLVESGGGLVQPGGSLRLSCAVSGFSLSSYAMGWVRQAPGKCLEYIGYISKIGTTYYASWAKGRFTISKDNSKNTVYLQMNSLRAEDTAVYFCARGSSSGGYLDDGFDPWGQGTLVTVSSGGGGSGGGGSEVQLVESGGGLVQPGGSLRLSCAASGFSLSSYDMSWVRQAPGKGLAWIGASYASGPTYYASWAKGRFTISRDNSKNTVYLQMCSLRAEDTATYFCARGGWTGTSHSNIWGQGTLVTVSSGGGSGGGSGGGSGEVQLVESGGGLVQPGGSLRLSCAASGFSLSSYAMNWVRQAPGKCLEWIGHINAGDIAYYATWAKGRFTISRDNSKNTVYLQMNSLRAEDTAVYFCARGAGGFSTGPFKLWGQGTLVTVSS
chain 2: ALQMTQSPSSLSARVGDRVTIKCQASQSISNYLAWYQQKPGKPPKFLIYDASDLASGVPSRFSGSGSGRDFTLTISSLQPEDFATYYCQQVYDSNNVENVFGCGTKVTVLGGGGGSGGGGSGGGGSGGGGSQSQLVESGGGLVQPGGSLRLSCAVSGFSLSSYAMGWVRQAPGKCLEYIGYISKIGTTYYASWAKGRFTISKDNSKNTVYLQMNSLRAEDTAVYFCARGSSSGGYLDDGFDPWGQGTLVTVSSGGGGSGGGGSAFELTQSPSSLSASVGDRVTITCQASESINSRLAWYQQKPGQPPKLLIYDASDLTSGVPSRFSGSGSGTDFTLTISCLQPEDFATYYCQGYGGSSTTTFGCGTKLTVLGGGSGGSGGSGGSGDIQMTQSPSSLSASVGDRVTITCQSSQSVFSNNYLAWFQQKPGQSPKRLIYSASTLASGVPSRFSGSGSGTDFTLTISSLQPEDFATYYCLGSYACSSADCYVFGTGTKVTVLG
notes: Heterodimer
Take B2: the Kd in assay [4] was determined as 6450 pM; in assay [8] it was 6450 pM; in assay [9], 1390 pM. The EC50 in assay [5] worked out at 447 pM; in assay [6], 87.7 pM; in [7], 5550 pM. In addition, the “max. binding (MFI)” value was 609000 MFI in assay [5], 12000 MFI in assay [6] and 148000 MFI in assay [7]. The koff in assay [8] came out at 0.00149 s⁻¹; in assay [9], 0.000571 s⁻¹. The kon came out at 231000 M⁻¹ s⁻¹ in assay [8] and 410000 M⁻¹ s⁻¹ in [9].

B3: anti-MSLN scFv PRO2306 (scFv)
scFv: ALQMTQSPSSLSARVGDRVTIKCQASQSISNYLAWYQQKPGKPPKFLIYDASDLASGVPSRFSGSGSGRDFTLTISSLQPEDFATYYCQQVYDSNNVENVFGTGTKVTVLGGGGGSGGGGSGGGGSGGGGSQSQLVESGGGLVQPGGSLRLSCAVSGFSLSSYAMGWVRQAPGKGLEYIGYISKIGTTYYASWAKGRFTISKDNSKNTVYLQMNSLRAEDTAVYFCARGSSSGGYLDDGFDPWGQGTLVTVSS
notes: also called 54-32-A07-sc06; PRO1925-S14R-T87R-T22K
As for B3, in assay [1], the EC50 turned out to be 3050 pM; the “rel. EC50 (EC50, Amatuximab/EC50, scFv)” value was 0.026 ratio; the “rel. Maximum binding” value stood at 0.55 ratio. In assay [2], the Kd turned out to be 322 pM, the koff is 0.000873 s⁻¹ and the kon came to 2.72e+06 M⁻¹ s⁻¹.

B4: anti-MSLN scFv PRO1925 (scFv)
scFv: ALQMTQSPSSLSASVGDRVTITCQASQSISNYLAWYQQKPGKPPKFLIYDASDLASGVSSRFSGSGSGTDFTLTISSLQPEDFATYYCQQVYDSNNVENVFGTGTKVTVLGGGGGSGGGGSGGGGSGGGGSQSQLVESGGGLVQPGGSLRLSCAVSGFSLSSYAMGWVRQAPGKGLEYIGYISKIGTTYYASWAKGRFTISKDNSKNTVYLQMNSLRAEDTAVYFCARGSSSGGYLDDGFDPWGQGTLVTVSS
notes: also called 54-32-A07-sc02
Consider B4, for which, in assay [1], the concentration giving a half-maximal response (EC50) was 1010 pM; the “rel. EC50 (EC50, Amatuximab/EC50, scFv)” value was 0.11 ratio; the “rel. Maximum binding” value came to 0.58 ratio. Besides, in assay [2], the Kd came out at 488 pM, the dissociation rate constant (koff) worked out at 0.000794 s⁻¹ and the on-rate constant (kon) was determined as 1.63e+06 M⁻¹ s⁻¹. For the same molecule, in [3], the half-maximal inhibitory concentration (IC50) came to 140 pM; the “Maximum inhibition at highest sample conc.” value came out at 99.2%; the “rel. IC50 (IC50, Amatuximab/IC50, scFv)” value stood at 0.11 ratio.

B5: anti-MSLN scFv PRO2309 (scFv)
scFv: ALQMTQSPSSLSARVGDRVTIKCQASQSISNYLAWYQQKPGKPPKFLIYDASDLASGVPSRFSGSGSGRDFTLTISSLQPEDFATYYCQQVYDSNNVENVFGCGTKVTVLGGGGGSGGGGSGGGGSGGGGSQSQLVESGGGLVQPGGSLRLSCAVSGFSLSSYAMGWVRQAPGKCLEYIGYISKIGTTYYASWAKGRFTISKDNSKNTVYLQMNSLRAEDTAVYFCARGSSSGGYLDDGFDPWGQGTLVTVSS
notes: VL/VH interdomain disulfide variant; also called 54-32-A07-sc09; PRO1925-S14R-T87R-T22K-DIS
B5: in [1], a half-maximal effect (EC50) was put at 1130 pM; the “rel. EC50 (EC50, Amatuximab/EC50, scFv)” value was 0.07 ratio; the “rel. Maximum binding” value turned out to be 0.78 ratio. Moreover, in assay [2], the Kd worked out at 444 pM, the koff stood at 0.00138 s⁻¹ and the kon was determined as 3.11e+06 M⁻¹ s⁻¹.
